From article PMC5868747
Read-outs that look alike come from different tables or passages of the source.

Experiments:
[1] = biological target: T1, Myc-RTA (IVT) (Kaposi's sarcoma-associated herpesvirus …, UniProt F5HCV3 1-691); assay: EMSA
[2] = biological target: T1, Myc-RTA (IVT); assay: EMSA; remark: listed apart in the source

T1 sequence (F5HCV3 whole entry): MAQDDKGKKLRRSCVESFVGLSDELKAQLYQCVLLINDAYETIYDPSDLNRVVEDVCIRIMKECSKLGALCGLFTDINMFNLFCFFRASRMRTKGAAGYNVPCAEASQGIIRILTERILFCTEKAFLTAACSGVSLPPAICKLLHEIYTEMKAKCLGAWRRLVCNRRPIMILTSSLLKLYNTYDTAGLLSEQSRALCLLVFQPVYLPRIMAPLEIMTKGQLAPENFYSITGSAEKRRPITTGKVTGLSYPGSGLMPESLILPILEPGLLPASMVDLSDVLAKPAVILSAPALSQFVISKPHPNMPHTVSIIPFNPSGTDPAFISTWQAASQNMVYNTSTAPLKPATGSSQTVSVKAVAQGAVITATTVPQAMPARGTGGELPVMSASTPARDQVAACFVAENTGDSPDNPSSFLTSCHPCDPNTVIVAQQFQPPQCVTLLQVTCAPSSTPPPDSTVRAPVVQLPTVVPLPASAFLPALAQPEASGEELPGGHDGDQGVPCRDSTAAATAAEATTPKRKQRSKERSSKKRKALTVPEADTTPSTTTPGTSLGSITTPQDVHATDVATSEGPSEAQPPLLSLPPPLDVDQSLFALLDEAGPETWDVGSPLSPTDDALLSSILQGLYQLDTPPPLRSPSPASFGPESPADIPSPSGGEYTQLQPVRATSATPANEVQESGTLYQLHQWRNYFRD

| Binder | binding result [1] | binding result [2] |
| --- | --- | --- |
| 59pA (dsDNA) DNA 1: ACACCACGTGTGTGACTGACGATTTGTGAAGGTTAACCTGTCCATGTCGC DNA 2: GCGACATGGACAGGTTAACCTTCACAAATCGTCAGTCACACACGTGGTGT | binds | – |
| 59pF (minimal RRE) (dsDNA) DNA 1: CGATTTGTGAAGGTTAACCTGTCCATG DNA 2: CATGGACAGGTTAACCTTCACAAATCG | – | binds |
